Molecular target: T1, pHer3 in BxPC3 and Calu-3 xenografts (Homo sapiens, UniProt P21860)
T1 construct: on FFPE sections of BxPC3 xenografts; endogenous in cells; host or cells: BxPC3 (pancreas cancer) and Calu-3 (NSCLC) human tumour cells grown as xenografts in mice
Assay: Immunohistochemical staining with anti-pHer3 antibody 21D3 on FFPE sections of xenograft tumours after antibody administration
Assay type: in vivo
Settings: FIGS. 7, 8 and 11, versus control IgG1
Experimental: FIG. 7: Immunohistochemical staining with rabbit monoclonal anti-p Her3 antibody (Cell Signalling 21D3, Lot 4 1:650 dilution, 0.074 ug/ml) on FFPE sections of BxPC3 xenografts, 20×. • (A) and (B) Tumour after administration of control IgG1 500 μg/mouse • (C) and (D) Tumour after administration of antibody U3-1287 500 μg/mouse • Stainings were done in duplicate on three independent xenografts.
FIG. 8: Immunohistochemical staining with rabbit monoclonal anti-pHer3 antibody (Cell Signalling 21D3, Lot 4 1:650 dilution, 0.074 ug/ml) on FFPE sections of BxPC3 xenografts, 20×. • (A) Tumour after administration of antibody U3-1287 25 μg/mouse • (B) Tumour after administration of antibody […] 100 μg/mouse • (C) Tumour after administration of antibody U3-1287 200 μg/mouse • (D) Tumour after administration of antibody U3-1287 500 μg/mouse • (E) Tumour after administration of control IgG1 500 μg/mouse. • Stainings were done in duplicate on three independent xenografts.
FIG. 11: Immunohistochemical staining with rabbit monoclonal anti pHer3 antibody (Cell Signalling 21D3, Lot 4 1:8000 dilution, 0.006 ug/ml) on FFPE sections Calu-3 xenografts, 40×. • (A) and (B) Tumour after administration of control IgG1 25 mg/kg 72 h • (C) and (D) Tumour after administration of antibody U3-1287 25 mg/kg 72 h • Stainings were done in duplicate on five independent xenografts.
Using a microtome, 2-4 μm thin sections were cut, mounted on silanized glass slides and dried at 60° C. for 30 minutes and at 38° C. overnight. Deparaffinisation and rehydration of the specimen was achieved by incubating 2×5 minutes in Xylol, 2×2 minutes in 100% ethanol and 2 minutes each in 96%, 80% and 70% ethanol. After rinsing 20 seconds in distilled water, the slides were incubated for two minutes in PBS. […]
The anti-tumor efficacy of a HER modulator were evaluated in human xenograft tumor studies. In these studies, human tumors were grown as xenografts in immunocompromised mice and therapeutic efficacy was measured by the degree of tumor growth inhibition in response to administrations of the HER modulator. […]

anti-HER3 antibody: anti-HER3 antibody U3-1287 administered to mice bearing BxPC3 or Calu-3 xenografts
reduction: membrane staining intensity (pHer3) | pHer3 positive cells compared to whole cell number in the tumour | tumour cells compared to whole cell number in the tumour

Source: patent US10365283B2, “Activated HER3 as a marker for predicting therapeutic efficacy” (U3 PHARMA GMBH, priority 2006, dated 2019)
